Reference: patent publication US20250242062A1 (VANDERBILT UNIVERSITY, published 2025)

Tests used:
[1] = target: T1, murine COX-2 (mCOX-2) enzyme (murine, UniProt Q05769 18-604); assay: cell-based or functional assay
T1 sequence (looked up): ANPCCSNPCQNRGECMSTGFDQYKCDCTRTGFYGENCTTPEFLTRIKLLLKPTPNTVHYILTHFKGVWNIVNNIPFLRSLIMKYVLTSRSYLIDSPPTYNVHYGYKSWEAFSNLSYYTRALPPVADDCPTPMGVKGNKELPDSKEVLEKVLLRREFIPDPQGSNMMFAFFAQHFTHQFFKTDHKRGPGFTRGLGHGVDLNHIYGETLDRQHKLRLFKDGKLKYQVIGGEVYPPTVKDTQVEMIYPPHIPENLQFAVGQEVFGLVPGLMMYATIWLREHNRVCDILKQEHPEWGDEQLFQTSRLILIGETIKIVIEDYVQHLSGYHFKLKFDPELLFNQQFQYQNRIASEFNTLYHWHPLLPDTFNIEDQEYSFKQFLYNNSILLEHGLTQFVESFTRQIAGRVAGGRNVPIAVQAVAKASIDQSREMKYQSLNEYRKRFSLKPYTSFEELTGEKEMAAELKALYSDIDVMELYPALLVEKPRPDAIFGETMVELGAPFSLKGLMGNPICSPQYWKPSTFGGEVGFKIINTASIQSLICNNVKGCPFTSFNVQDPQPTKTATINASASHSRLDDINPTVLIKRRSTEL

[2] = target: T1, murine COX-2 (mCOX-2) enzyme; assay: microscale thermophoresis (MST), apo mCOX-2; apo mCOX-2 as target
Method: The dissociation constant of A7 and F9 nanobodies while bound to apo mCOX-2 was evaluated by a microscale thermophoresis (MST) assay (Bartoschik, T, et al. Sci Rep 2018 8:4977). […] Further, the COX-2 inhibitory activity of A7 and F9 nanobodies was evaluated in the production of prostaglandin E2 (PGE2) and prostaglandin D2 (PGD2) using arachidonic acid (AA) as a substrate. In this assay, purified mouse COX-2 expressed in baculovirus-infected Sf9 cells was used. Purified COX-2 was incubated with varying concentrations of test nanobodies followed by the addition of hematin and AA, respectively. The PGE2 and PGD2 products in the reaction was quantified by a tandem liquid chromatography mass spectroscopy (LC-MS/MS) analysis.

B1: A7 nanobody (VHH)
VHH: QVQLQESGGGLVQPGGSLKLSCAASGSIFSINVMGWYRQAPGKQRELVATITSGGTTNYADSVKGRFTISRDNAKDTLYLQMNSLKPEDTAVYYCNAKDLGGSSWFSEFDYWGQGTQVTVGP
notes: Alpaca-derived VHH expressed in E. coli and purified by SEC; The stated molecular weight is 15.24 kDa; also called native A7 nanobody clone
IC50, inhibition of PGE2 and PGD2 production from arachidonic acid by purified mouse COX-2 (LC-MS/MS) [1]: 6.8 nM | Kd [2]: 2.4 nM
